Measured values reported in the nanobody polyreactivity screen of Harvey et al. (2022).

Experiment: yeast display, Sf9 membrane polyspecificity reagent, FACS + sequencing; frameworks hold sequencing errors
How it was run: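 In a synthetic yeast display library (Saccharomyces cerevisiae BJ5465), nanobody expression was induced with galactose for 36–48 hours. FACS gates were set low and high (top ~1%) using anti-HA fluorescence for expression and streptavidin fluorescence for binding of the Sf9 membrane reagent. Each polyreactivity label is drawn from the gate of origin.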

Row | Sequence | polyreactivity (PSR sort gate)
1 | QVQLVESGGGLVQAGGSLRLSCAASGFIFDEYAMGWYRQAPGKERELVAAISWSGSRTYYADSVKGRFTISRDNAKNTVYLQMNSLKPQDTAVDYCAKVTAVGAGRRNYWGQGTQVTVSS | low polyreactivity
2 | QVQLVESGGGLVQAGGSLRLSCAASGFIFDEYTMGWYRQAPGKERELVAAITSSGGTDYADSVKGRFTISRDNAKNTVYLQMNSLKPEDTAVYYCNTEDYYRDYDYWGQGTQVTVSS | low polyreactivity
3 | QVQLVESGGGLVQAGGSLRLSCAASGFIFDFYTMGWYRQAPGKERELVAAITNAGSTYYADSVKGRFTISRDNAMNTFYLHMNSLKPEDTAVYYCAAYYRSRHHGYDSWGQGTQVTVSS | low polyreactivity
4 | QVQLVESGGGLVQAGGSLRLSCAASGFIFDGYAMGWYRQAPGKERELVAAISSVGSTYYADSVKGRFTISRDNAKNTVYLQMNSLKPEDTAVYYCARGLEERYDYWGQGTQVTVSS | low polyreactivity
5 | QVQLVESGGGLVQAGGSLRLSCAASGFIFDNNAMGWYRQAPGKERELVATITSGGRTNYADSVKVRFTISRDNAKNTVYLQMNSLKPEDTAVYYCAAGYYLGSRRKTRDYWGQGTQVTVSS | low polyreactivity
6 | QVQLVESGGGLVQAGGSLRLSCAASGFIFDPNAMGWYRQAPGRERELVAAISSSGGRTYYADSVKGRFTISRDNAKNTVYLQMNSLKPEDTAVYYCATDTSVQGQEYDYWGQGTQVTVSS | low polyreactivity
7 | QVQLVESGGGLVQAGGSLRLSCAASGFIFDPYAMGWYRQAPGKERELVAAISRGGSTYYADSVKGRFTISRDNAKNIVYLQMNSLKPEDTAVYYCAAVFKFTREYSTGIRYYYWGQGTQVTVSS | high polyreactivity
8 | QVQLVESGGGLVQAGGSLRLSCAASGFIFDQNAMGWYRQAPGKERELVAAITRSGGCTYYADSVKGRFTISRDNAKNTVYLQMYSLNPEDTAVYYCAADLSYRGATRGDYYWGPGTQVTVSS | low polyreactivity
9 | QVQLVESGGGLVQAGGSLRLSCAASGFIFDQYAMGWYRQAPGKERELVAAITTGGDTNYADSVKGRFTISRDNAKNTVYLQMISLKPDDSAVYYCAAKKWLTSGAFDRVFIEFDYWGQGTQVTVSS | low polyreactivity
10 | QVQLVESGGGLVQAGGSLRLSCAASGFIFDRYAMGWYRQAPGKERELVAAITGSGGSTYYGDSVKGRFTISRDNAKNTVYLQMNSLKPEDTAVYYCNTGGRSGSPGYDYWGQGTQVTVSS | high polyreactivity
11 | QVQLVESGGGLVQAGGSLRLSCAASGFIFDSYAMGWYRQAPGKERELVAAISDGSSTYADSVKGRFTISRDNAKNTVYLQMNSLKPEDTAVYYCAAGVSTWWSTYDYWGQGTQVTVSS | high polyreactivity
12 | QVQLVESGGGLVQAGGSLRLSCAASGFIFDTYAMGWYRQAPGKERELVAAISWTGTDTYYADSVKGRFTISRDNAKNTVYLQMNSLKPEDTAVYYCAARSRYKYSPSGDYWGQGTQVTVSS | high polyreactivity
13 | QVQLVESGGGLVQAGGSLRLSCAASGFIFDVYAMGWYRQAPGKERELVAAISVSSTNYADSVKGRFTISRDNAKNTVYLQMNSLKPEDTAVYYCAADTYTYFLASYLYGQYDYWGQGTQVTVSS | low polyreactivity
14 | QVQLVESGGGLVQAGGSLRLSCAASGFIFDVYAMGWYRQAPGKERELVAAITSGDGTNYADSVKGRFTISRDNAKNTVYLQMNSLKPEDTAVYYCAADYGVTYRGIIFSYWGQGTQVTVSS | low polyreactivity
15 | QVQLVESGGGLVQAGGSLRLSCAASGFIFDVYAMGWYRQAPGTERELVAAITSGDGTNYADSVKGRFTISRDNAKNTVYLQMNSLKPEETAVYYCAADDGVTYRGIIFSYWGQGTQVTVSS | low polyreactivity
16 | QVQLVESGGGLVQAGGSLRLSCAASGFIFDWYAMGSYSQAPGKEREFVAAINWSGGSTYYADSVKGRFTISRDNAKNTVYLQMNSLKPEDTAVYYCAAYRPYSSSEGVYWGQGTQVTVSS | high polyreactivity
17 | QVQLVESGGGLVQAGGSLRLSCAASGFIFDYNTMGWYRQEPGKERELVADISGGGGRTYYADSVKGRFTISRDNAKNTVYLQMNSLKPEDTAVYYCAALGYYHHAWWISYDYWGQGTQVTVSS | low polyreactivity
18 | QVQLVESGGGLVQAGGSLRLSCAASGFIFDYYAMGWYRQAPGKEREFVAAITWDGGSTYYADSVKGRFTISRDNAKNTVYLQMNSLKPEDTAVYYRAAETWGEYGYWGQGTQVTVSS | low polyreactivity
19 | QVQLVESGGGLVQAGGSLRLSCAASGFIFDYYAMGWYRQAPGKERELVAAITSRSGSTYYADSVKGRFTISRDNAKNTVYLQMNSLKPEDTAVYYCAARRARRDPVGYVYAKYGYWGQGTQVTVSS | high polyreactivity
20 | QVQLVESGGGLVQAGGSLRLSCAASGFIFEGYAMGWYRQAPGKERELVATISRSGGRTNYADSVKGRFTISRDNAKNTVYLQMNSLKPEDTAVYYCAAAYLRRVAYDYWGQGTQVTVSS | high polyreactivity
21 | QVQLVESGGGLVQAGGSLRLSCAASGFIFETNAMGWYRQAPGKERELVAAISSRGGSTYYADSVKGRFTISRDNAKNTVYLQMNSLKPEDTAVYYCAAKLVVSYGQEYDYWGQGTQVTVSS | low polyreactivity
22 | QVQLVESGGGLVQAGGSLRLSCAASGFIFFTYAMGWYRQAPGKERELVADISSRGGSTYYADSVKGRFTISRDNAKNTVYLQMNSLKPEDTAVYYCARTRFWLRYRLFDYWGQGTQVTVSS | low polyreactivity

Row | Sequence | polyreactivity (PSR sort gate)
23 | QVQLVESGGGLVQAGGSLRLSCAASGFIFFTYAMGWYRQAPGKVRELVAAITSRGGRTYYADSVKGRFTISRDNAKNTVYLQMNILKPEDTAVYYCAVDPVRRYRYDYWGQGTQVTVSS | low polyreactivity
24 | QVQLVESGGGLVQAGGSLRLSCAASGFIFFYNAMGWYRQAPGKERELVAAISARGGSTYYADSVKGRFTISRDNAKNTVYLQMNSLKPEDTAVYYCNAVFPWPYVSRSIYWYYWGQGTQVTVSS | high polyreactivity
25 | QVQLVESGGGLVQAGGSLRLSCAASGFIFGANAMGWYRPAPGKERELVASINGSGGSTFYADSVKGRFTISRDNAKNTVYLQMNSLNPEDTAVYYCAAPCFCWFTTGGYYYWGQGTQVTVSS | low polyreactivity
26 | QVQLVESGGGLVQAGGSLRLSCAASGFIFGAYAMGWYRQAPGKERELVAALSSRGGNTYYADSVKGRFTISRDNAKNTVYLQMNSLKPEDTAVYYCNAVGYARYLYVPPPYDYWGQGTQVTVSS | high polyreactivity
27 | QVQLVESGGGLVQAGGSLRLSCAASGFIFGFNAMGWYRQAPGKERELVAVISARGGRTYYADSVKGRFTISRDNAKNTVYLQMNSLKPEDTAVYYCAADDFFRYFFTHWVGDDYWGQGTQVTVSS | low polyreactivity
28 | QVQLVESGGGLVQAGGSLRLSCAASGFIFGFYAMGWYRQAPGKERELVAAISGGGGRTNYADSVKGRFTISRDNAKNTVYLQMNSLKPEDTAVYYCARSPSYYSYTFGRQAYGNDYWGQGTQVTVSS | high polyreactivity
29 | QVQLVESGGGLVQAGGSLRLSCAASGFIFGHNTMGWYRQAPGKERELVARITSSGGGTNYADSVKGRFTISRDNAKNTVYLQMNSLKPEDTAVYYCAAELLYWGYYDYDYWGQGTQVTVSS | high polyreactivity
30 | QVQLVESGGGLVQAGGSLRLSCAASGFIFGHYAMGWYRPAPGKERELVAGINSSGGSTHYADSVKGRFTISRDNAKNTVYLQMNSLKPEDTAVYYCAADVYRYYAGSRYYYWGQGTQVTVSS | low polyreactivity
31 | QVQLVESGGGLVQAGGSLRLSCAASGFIFGINAMGWSRQAPGKERELVAAISRSGGRTYYADSVKGRCTISRDNAKNTVYLQMNSLKPEDTAVYYCAADKASYTNYDGDSWGQGTQVTVSS | high polyreactivity
32 | QVQLVESGGGLVQAGGSLRLSCAASGFIFGINAMGWYRQAPGKERELVATITSGGGTNYADSVKGRFTISRDNAKNTVYLQMNSLKPEDTAVYYCAAEEDYIYFYVSMDYWGQGTQVTVSS | low polyreactivity
33 | QVQLVESGGGLVQAGGSLRLSCAASGFIFGIYAMGWYRQAPGKEREFVAAMTGSAGSTYYADSVKGRFTISRDNAKNTVYLQMNSLKPEDTAVYYCAAVLRTHRYGGYNYWGQGTQVTVSS | low polyreactivity
34 | QVQLVESGGGLVQAGGSLRLSCAASGFIFGIYAMGWYRQAPGKERELVAAISWRGDSTYYADSVKGRFTISRDNAKNTVYLQMNSLKPEDTAVYYCAAVYYKLVGWYSYRYGYWGQGTQVTVSS | low polyreactivity
35 | QVQLVESGGGLVQAGGSLRLSCAASGFIFGLNAMGWYRPAPGKERELVAAIRSASSTNYADSVKGRFTISRDNAKNTVYLQMNSVKPEDTAVYYCAAEYVTYQQGFWGYDYWGQGTEVTVSS | low polyreactivity
36 | QVQLVESGGGLVQAGGSLRLSCAASGFIFGPNAMGWYIQAPGKERELVAAITWSSGRTYYADSVKGRFTISRDNAKNTVYLQMNSLKPEDTAVYYCAADFSRAVLRGNYWGQGTQVTVSS | high polyreactivity
37 | QVQLVESGGGLVQAGGSLRLSCAASGFIFGPYAMGWYRQAPGKERELVASISWSGGRTYYADSVKGRFTISRDNAKNTVYLQMNSLKPEDTAVYYCAADLPVIRGYRSNRFGYWGQGTQVTVSS | high polyreactivity
38 | QVQLVESGGGLVQAGGSLRLSCAASGFIFGQYAMGWSRQAPGKERELVAAISESGGRTYYADSVKGRFTISRDNAKNTVYLQMNSLKPEDTAVYYCAADKSKYRAFDYWGQGTQVTVSS | high polyreactivity
39 | QVQLVESGGGLVQAGGSLRLSCAASGFIFGQYAMGWSRQAPGKERELVAAISSVGTTNYADSVKGRFTISRDNAKNTVYLQMNSLKPEDTAVYYCNAPVFYYWDYSYFPYEVDYWGQGTQVTVSS | low polyreactivity
40 | QVQLVESGGGLVQAGGSLRLSCAASGFIFGRNAMGWYRQAPGKERELVAGISSRGGRTYYADSVKGRFTISRDNAKNTVYLQMNSLKPEDTAVYYCAAAGLTDYVRYDYWGQGTQVTVSS | high polyreactivity
41 | QVQLVESGGGLVQAGGSLRLSCAASGFIFGRYAMGWYRQAPGKERELVAAISKTGGRTYYADSVKGRFTISRDNAKNTVYLQMNSLKPEDTAVYYCAAVYKRGMDYWGQGTEVTVSS | high polyreactivity
42 | QVQLVESGGGLVQAGGSLRLSCAASGFIFGRYAMGWYRQAPGKERELVAAISRSGGSTHYADSVKGRFTISRDNAKNTVYLQMISLKPEDTAVYYCAAVWPFDRSRMDYWGQGTQVTVSS | high polyreactivity
43 | QVQLVESGGGLVQAGGSLRLSCAASGFIFGSNAMGWYRQAPGKERELVAAISRSGGSTYYADSVKGRFTISRDNAKNTVYLQMNSLKPEDTAVYYCNVDLWPFVYSWWSYDYWGQGTQVTVSS | high polyreactivity
